Test results as given in article PMC5264208, “Transitional changes in the CRP structure lead to the exposure of proinflammatory binding sites” (Nature Communications, 2017).

Tests used:
[1] = target: T1, Alexa Fluor 488-labelled C1q (human, UniProt P02745 23-245; P02746 28-253; P02747 29-245, Alexa Fluor 488 (site and chain not stated) | Alexa Fluor 488 (site and chain not stated) | Alexa Fluor 488 (site and chain not stated)); assay: real-time fluorescence binding (LigandTracer); THP-1 microvesicles (0.5 mg/ml) spotted on nitrocellulose, blocked with 5% BSA; Alexa Fluor 488-labelled C1q added with or without pCRP; settings: both partners purified
T1 construct: Complement C1q subcomponent subunit A, human; Complement C1q subcomponent subunit B, human; Complement C1q subcomponent subunit C, human; Same protein as m3 with a fluorescent label; source: labelled with Alexa Fluor 488; copies: 6 + 6 + 6
T1 sequence (P02745 23-245, chain 1 of 3): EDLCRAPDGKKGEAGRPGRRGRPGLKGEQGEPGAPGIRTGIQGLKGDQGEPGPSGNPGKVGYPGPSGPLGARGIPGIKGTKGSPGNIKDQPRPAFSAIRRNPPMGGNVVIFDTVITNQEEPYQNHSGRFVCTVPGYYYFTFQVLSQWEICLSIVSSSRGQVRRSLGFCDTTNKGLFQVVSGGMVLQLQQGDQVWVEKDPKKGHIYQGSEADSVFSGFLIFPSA
T1 sequence (P02746 28-253, chain 2 of 3): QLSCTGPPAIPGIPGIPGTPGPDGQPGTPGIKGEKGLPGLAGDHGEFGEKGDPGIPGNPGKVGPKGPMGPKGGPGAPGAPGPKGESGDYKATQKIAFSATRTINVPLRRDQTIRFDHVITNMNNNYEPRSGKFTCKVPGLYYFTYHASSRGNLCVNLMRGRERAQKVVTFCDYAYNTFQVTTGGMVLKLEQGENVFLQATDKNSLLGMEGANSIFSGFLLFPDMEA
T1 sequence (P02747 29-245, chain 3 of 3): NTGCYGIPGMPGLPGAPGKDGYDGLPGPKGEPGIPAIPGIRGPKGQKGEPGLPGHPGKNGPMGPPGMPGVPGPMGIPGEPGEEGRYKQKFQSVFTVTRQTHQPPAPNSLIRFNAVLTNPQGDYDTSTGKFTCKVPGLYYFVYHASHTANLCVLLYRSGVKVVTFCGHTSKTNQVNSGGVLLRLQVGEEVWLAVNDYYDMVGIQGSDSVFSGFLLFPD

[2] = target: T2, human complement factor 1q (human, UniProt P02745 23-245; P02746 28-253; P02747 29-245); assay: real-time fluorescence binding (LigandTracer); human C1q (60 ug/ml) spotted on nitrocellulose; CMFDA-labelled THP-1 microvesicles preincubated 2 h at 37 °C with pCRP or mCRP (100 ug/ml) and added at 20 ug/ml; the read-out is the fluorescence of the microvesicles that carry the CRP; settings: both partners purified
T2 construct: Complement C1q subcomponent subunit A, human; Complement C1q subcomponent subunit B, human; Complement C1q subcomponent subunit C, human; also called C1q; complement C1q; source: bought: Merck Chemicals GmbH; copies: 6 + 6 + 6
T2 sequence (P02745 23-245, chain 1 of 3): as the sequence (P02745 23-245, chain 1 of 3) above
T2 sequence (P02746 28-253, chain 2 of 3): as the sequence (P02746 28-253, chain 2 of 3) above
T2 sequence (P02747 29-245, chain 3 of 3): as the sequence (P02747 29-245, chain 3 of 3) above

B1: pentameric C-reactive protein (natural protein, human, UniProt P02741 19-224, looked up)
chain: QTDMSRKAFVFPKESDTSYVSLKAPLTKPLKAFTVCLHFYTELSSTRGYSIFSYATKRQDNEILIFWSKDIGYSFTVGGSEILFEVPEVTVAPVHICTSWESASGIVEFWVDGKPRVRKSLKKGYTVGAEASIILGQEQDSFGGNFEGSQSLVGDIGNVNMWDFVLSPDEINTIYLGGPFSPNVLNWRALKYEVQGEVFTKPQLWP
notes: C-reactive protein, human; five identical subunits of about 23 kDa; also called pCRP; CRP; source: bought: Calbiochem; dialysed against D-PBS with 2 mM Ca2+
[1]
  binding result: binds
[2]
  binding result: binds
